# The DeepSol protein solubility set
# Assay: soluble on expression in E. coli; label from the status in PepcDB or PDB records
row,Sequence,soluble on expression in E. coli
1,MTPEALSFWTQADKPFLFLAACIELTNALAYGPGYVCGLPCSWDGSCSGAQHLCAATRSEDAWKVNLIGNDEVHDLYTIVGNAAKQSMARDTDPMVSTILAYEGDWRKVFKRNTMTTFYGSKGFGMAQQHMDDLMEPLSREVMQKKRAKHPFGQTRKEHHAASRLLAAHAAAAIKGEIPLAIKAMEFIQKLSAMMAHEGKPLEWTTPIGLPWSNRYHDPVTERVNLWMHDHGVRRPFRPVVADGYKKTINKNHSVNGSAPNFVHACDAAHLLRTVNAARAEGITQFALVHDSFGSLPSHAARFRQIIREEFVRMYEEHDVLTEVLEQAKCDLDEHNDKLSALVDMRADLTGKLNIKEVLNAEYAFAYPKLSEPDTKGEYADGKYKTEGTATEDYTERFQEEIQKVADDNFPGKKNVHLPWKETKEGDIAFIFKNPKKKPILTDSRGKPLKEGTVIRGGSKIRIAGVIAAWEKGAKRGVSLWPDAVRVIKLSEGFDANAAFGAAEDGFNADDYEPTNFGNDGEDADNDADDAEAGDDAFKLLEHHHHHH,not soluble
2,MTPEAPYASLTEIEHLVQSVCKSYRETCQLRLEDLLRQRSNIFSREEVTGYQRKSMWEMWERCAHHLTEAIQYVVEFAKRLSGFMELCQNDQIVLLKAGAMEVVLVRMCRAYNADNRTVFFEGKYGGMELFRALGCSELISSIFDFSHSLSALHFSEDEIALYTALVLINAHRPGLQEKRKVEQLQYNLELAFHHHLCKTHRQSILAKLPPKGKLRSLCSQHVERLQIFQHLHPIVVQAAFPPLYKELFST,soluble
3,MTPGGQAQIGNVDLVKQLNSAAVYRLIDQYGPISRIQIAEQSQLAPASVTKITRQLIERGLIKEVDQQASTGGRRAISIVTETRNFHAIGVRLGRHDATITLFDLSSKVLAEEHYPLPERTQQTLEHALLNAIAQFIDSYQRKLRELIAISVILPGLVDPDSGKIHYMPHIQVENWGLVEALEERFKVTCFVGHDIRSLALAEHYFGASQDCEDSILVRVHRGTGAGIISNGRIFIGRNGNVGEIGHIQVEPLGERCHCGNFGCLETIAANAAIEQRVLNLLKQGYQSRVPLDDCTIKTICKAANKGDSLASEVIEYVGRHLGKTIAIAINLFNPQKIVIAGEITEADKVLLPAIESCINTQALKAFRTNLPVVRSELDHRSAIGAFALVKRAMLNGILLQHLLEN,soluble
4,MTPVQLKNYLEQLVGNQIKTSTMIWGPPGIGKSSIVAQIAEEGKLRFIDLRLSQLAPTDLRGLPVAIPTSKTKPQTGTSAWYPPEFLPKDGAGILFLDELNMAPPAMQGVAQQLILDRRVGSYEVPTDWFIWAAGNRKEDRASVFEMPAPLANRFLHLDVQPDFESFKQYALEQKYHEQVIAFLSFRPGLIHKLDLQRPAWPSPRSWAIANGLHQVNLDVSPAVGEGCAAEFSAFVQLYKDLPDLEAIFRGQGQNIGFPTEPSSGYASTIGLAVRAKDATAGVNAFHWLTDKADSEWVQLFVTDMAGQLRRAGHLGALSIMAKKEPKLKQFMQGYQELLAILEHHHHHH,soluble
5,MTQETFTATTRVKRGLADMLKGGVIMDVVTPEQARIAEDAGASAVMALERVPADIRAQGGVARMSDPDLIEGIVNAVSIPVMAKARIGHFVEAQILESLGVDFIDESEVLSPADYVNHIDKWNFDVPFVCGATNLGEALRRITEGAAMIRSKGEAGTGDVSEAVKHLRTIRGEINRLRSMDEDQLYVAAKEIQAPYDLVREVAATGKLPVTLFVAGGVATPADAALVMQMGAEGVFVGSGIFKSGNPAARAAAIVKATTMYDDPAAIAEVSRGLGEAMVGINVADVPAPHRLAERGW,not soluble
6,MTQPFNFEQALKDLQSGKSLTGKDSILGPLIKQLTEAALQAELEQHLAHDPQPNRKNGKTPKTIKHPSGNFELDAPRDRNGTFEPQLIKKNQTTLTDEIERKVLSMFSIGMSYRDINQHVEDMYGLNVSNATVSAITDKLIPELKAWQQRPLDSHYPIVWLDAIHYKVKEDGRYVSKAVYTLLALNMKGKKEILGLHLSENEGANYWLSVLADLNNRGVKDILIACVDGLTGFPEAIASIFPHTETQLCVIHQIRNSMKYVASKNQKAFMADLKPVYRAVSKEAAEMALDELEAKWGDAYPLVINSWRRKWHNLSHYFKYPEHIRKVIYTTNAVEAVHRQFRKLTKTKGAFPNENSLLKLLYAGILNASDKWTMPIHNWSLCLSQLAIYFEGRLDSVLEI,not soluble
7,MTQTASLFLQDSYREECLARITDVVEDGLLLDQTVFYPQGGGQAGDSGWLTLADGTRLRIADTRKGTEAGAGRDAILHIPAEGQATVLRAMKPGEVVLAQIDWVRRYRHMRLHTAAHMLCAVLPYPVNGCSITDEHARLDFVTSEPLSREAIDSALAAMVEAAHPVSIDTMSDDALRARPDLVRTMSVQPPMGAGQVRLVSIKDTDLQPCGGTHVANTEEVGVVRVSKMEKKSARTRRVVLVLG,not soluble
8,MTQVSIIVPVLNEESTIHSAVSRLCRDFPDCELIVVDGGSTDATAELAALHATVIGSERGRAKQMNEGARHASGGILWFIHADTAIEPEALGQIRSVLADPAVVAGGLTLRFDRRTPALNYLAWTSNARARRLHHIFGDQAMFIRRTAFDELGGFPDLAIMEDLEMSRRLHRRGPLRLLPATSTASSRRLTAHGTWRMIAFMQYLKLLYFAGADPEAIRARYTAGPRLFPKRNPATLEHHHHHH,not soluble
9,MTRQRFISDDHYKFQSEHFIRLHGCDISLFPLEIKGKESISDVYSYEIKCFSRTDHNSLDKLHGTRLSCEIGEQYNSLPARFIHGVVTKVIYNYDNSMQHTCIIILQPEIAELASGKRTRVWSNIKPSDIVSTILEDSLFSPPQVILYKEQNLLEYKIQYQESDLDFINRILSEAGIYYFFVHNRDKHIMTLADDPASHPKASYDKLEHLPCENLKESRHGYIREWSFTESLKCPSVTLSGYNESNVSEITIKSESKLTDVKPSKGVYEDIIPERKRELIKKRSEALIASCDSELKIWSGKTDSWWLSCGECFSLDKQDYRITSLYLNAVNNDNEHAGLCYCDLCASDNKSSLNFSREFKTPIIPGVLLARVVGPDSEEYYTDDNGRVKISFLWGEKSAAGTDKTSCWVRVSQVWSGEGFGSQFIPRIGSEVLVSFIQGNPDYPVIVGTVYNGQNTSPFSLPENNCKSGFITRSVKNGKKGEGHQLVFDDKEGEEKVIVTSSGDSLLTVKKDMISTINRSMSLTIAEGRNAEIKRGNDRLVLKEGDLHNDVHGNINIKVSNGDYNLKVSGGSGSLITDKNLTLESTQSIKIKVGANEITISTSGIDIKAAKITIEGQVSAEVKAATLKFESQAISEVKGTMLTLQGSAMTQIKGGIVNIG,not soluble
10,MTSGKIHNPLNRQHSELRSKNVSLSNGDPFTIALFGVDSNAQRKSENDGERSDTIMLLSINPKKQTTEIVSVPRDTQAEIVGKGTTEKINHAYAYGGPTMAVKSLEKLMNVPIDHYATVDMDGLHDMIDALGGVNVTSNDTFTTKGTNFVKGQSTHVDGDTAMAFIRSRKEEGAGGDFGRQERQQLILQAMANKMTSTSALTHFPSLINQIQKNVKTDLTLNDMNDIRKNYKNANTTVNRHQLEGQGGIQDDGLWYFIPNDDSKQSATEILNNNLQNLEHHHHHH,soluble
11,MTSMHTSVNGCKFCDIVKNKKELQLKENKSCVVINDIKPKAKNHYLVLSKQHIAKPTDLTVADVPLLEEMEKTGRELLREHLKKKGEADTVEDMLRIGFHLPPLLSVHHLHMHIIYPISDMGLISRKLTFRPGKVFKPARELIDQLKEDAGVPDPLEGNPAKDDVHEKIPAQVIS,not soluble
12,MTSNFREYLFAPDHPRLAELRELDAYAYRTVARRPGTFTGDLVAGWTPLYKNEFRGVTEDGTLREDVHCLEPARAGEAAPVPEMVAAAADLLAGLDDESRERIRYRVDAPEWQTWANPEFMQFDTGIRLEFQSEDVRRKALRLMASSLSPQGYELARNMMLINGFLGEVVGLPGILNEFSYNMAIYGTPHETRPWGWQVFGHHLAVNCFVVDGRMVISPLFLGAEPNEIDEGEHAGVTSFGTRIELGLALMAELTPEQRCAATVYEQMVDPAMPPGRVHPGDERHLAGAFQDNRQIPFEGVRVADLSCRAQELVLEIVEQFVALLPDGPRAARMREVRKMLSQTWFSWIGGHRPGDVFYYRVQSPVIIAELDHHCGVFLDYDTPKPFHIHTVVRTPHGNDYGRAYLRQWEQGHRLEHHHHHH,soluble
13,MTSQRCRRRYFMMIRERIEEKLRAAFQPVFLEVVDESYRHNVPAGSESHFKVVLVSDRFTGERFLNRHRMIYSTLAEELSTTVHALALHTYTIKEWEGLQDTVFASPPCRGAGSIALEHHHHHH,not soluble
14,MTSQTAFDLIFRNTLLRSSAAPVDIGVKGGRIAAIEPGLTCEAVEVDVGGHLALPGFVDTHIHLDKACLLGRCGHNHGSVSEAIRAVAGMKKDFTVEDVYARGARVLERAIVHGTTRMRTHVEIDPRIGLRGFEAVKALKRDYAWAIDLSLCVFPQEGLTNDPGAEDLLIQALRDGGETIGGCPYMDTDPNTHLERIFNLAQEFDVDVDLHLDFDLDPSWWHLDEVCRQTERRNYGGRVAVGHATKLSALPPEPLKAATAQLAKAGVAVTVLPATDLYLMGREATHNAPRGLTLAHKLAGDGVLCSVATNNVLNPFTPFGDASLLRMANFYANVAHASVSDFDICLDLVTELPARLMNLGDYGIKVGNPADLIVLDTQDSRFAIAELPDVMMGFKAGRQTFARQRPTLFSPGR,soluble
15,MTSRVDPANPGSELDSAIRDTLTYSNSPVPNALLTASESGFLDAAGIELDVLSGQQGTVHFTYDQPAYTRFGGEIPPLLSEGLRAPGRTRLLGITPLLGRQGFFVRDDSPITAAADLAGRRIGVSASAIRILRGQLGDYLELDPWRQTLVALGSWEARALLHTLEHGELGVDDVELVPISSPGVDVPAEQLEESATVKGADLFPDVARGQAAVLASGDVDALYSWLPWAGELQATGARPVVDLGLDERNAYASVWTVSSGLVRQRPGLVQRLVDAAVDAGLWARDHSDAVTSLHAANLGVSTGAVGQGFGADFQQRLVPRLDHDALALLERTQQFLLTNNLLQEPVALDQWAAPEFLNNSLNRHR,soluble
16,MTSTFLYKFYPNYNAKNCGDRMPKLMLALDVLDRDRALKIVEDVKDYVDAIKVGYPLVLSTGTEIIKEIKKLCNKEVIADFKVADIPATNEKIAKITLKYADGIIVHGFVGEDSVKAVQDVAKKLNKKVIMVTEMSHPGAVQFLQPIADKLSEMAKKLKVDAIVAPSTRPERLKEIKEIAELPVITPGVGAQGGKIEDILNILDENDYVIVGRAIYQSQNPKEEAKKYKEMLNK,soluble
17,MTSTRHHRGARRALRHLTTTTAHARRAFSPADLRQLEAAVREGERRHRGEVRIVIEASLPVRDAWAGVTPRQRARTLFGLLEVWNTHEHVGVLLYLNLADHAVEILADRGIAARVEPHAWRAICETITHGFAQGVAIGPVLEALGQIHAVLAAHFPSDGAPRANELADKPLVLLEHHHHHH,soluble
